This is an account of results in the nanobody polyreactivity screen of Harvey et al. (2022).

This series can be described thus: yeast display, Sf9 membrane polyspecificity reagent, FACS + sequencing; frameworks hold sequencing errors. In outline: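 Sorting gates, low and high (top ~1%), were placed on anti-HA fluorescence to track expression and on streptavidin fluorescence to track reagent binding. A clone's polyreactivity label is taken from the gate it came out of. The reagent was 10% biotinylated, detergent-solubilized Sf9 membrane, applied for 1 hour at 4 °C to galactose-induced yeast display cells.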
Take “QVQHVESGGGLVQAGGSLRLSCAASGRTFGQNAMGWYRQAPGKERELVASIRSGGITDYADSVKGRFTISRDNAKNTVYLHMNSLKPEDTAVYYCNAEGVWWSTRYDSWGQGTQVTVSA”: the “polyreactivity (PSR sort gate)” value is on record as “low polyreactivity”.

Turning to “QVQHVESGGGLVQAGGSLRLSCAASGRTFRGNAMGWDRQAPGKERELVAAIRYRGGSTYYADSVKGRFTISRDNAKNTVYLQMNSLKPEDTAVYYCARRYTVHTQHYDYWGQGTQVTVSS”, the “polyreactivity (PSR sort gate)” value is “high polyreactivity”.

Consider “QVQHVESGGGLVQAGGSLRLSCAASGRTFSANAMGWDRQAPGKEMELVATISSGGRTNYADSVKGRFTISRDNAKNTVYLQMNSLKPEDTAVYYCAKRGPYKRWYGRYDYWGQGTQVTVSS”, for which the “polyreactivity (PSR sort gate)” value is reported as “low polyreactivity”.

For “QVQHVESGGGLVQAGGSLRLSCAASGRTFYRNAMGWSRQAPGKERELVARINDGAGTYYADSVKGRFTISRDNAKNTVYLQMNSLKPEDTAVYYCAADYGSKLDYGYWGQGTQVTVSS”, the “polyreactivity (PSR sort gate)” value is listed as “low polyreactivity”.

On to “QVQHVESGGGLVQAGGSLRLSCAASGRTITLNAMGWYRQAPGKERELVAAITWGAGSTYYADSVKGRFTISRDNAKNTVYLQMNSLKPEDTAVYYCAARFHGAYYRYRSPSMYYWGQGTQVTVSS”, for which the “polyreactivity (PSR sort gate)” value is listed as “high polyreactivity”.

For “QVQHVESGGGLVQAGGSLRLSCAASGRTSFNYTQGWYRQAPGKERELVAAITSGGDTYYADSVKGRFTISRDNAKNTVYLPMNSLKPEDTAVYYCAVDDLGSEYDYWGQGTQVTVSS”, the “polyreactivity (PSR sort gate)” value is “low polyreactivity”.

“QVQHVESGGGLVQAGGSLRLSCAASGSIFAYYAMGWYRQAPGKERELVAAISYRGGSTYYADSVKGRFTISRDNAKNTVYLQMNSLKPEDTAVYYCNAGGRRRIFAHSSTGDYWGQGTQVTVSS”: the “polyreactivity (PSR sort gate)” value is listed as “high polyreactivity”.

Take “QVQHVESGGGLVQAGGSLRLSCAASGSIFGRYAMGWYRQAPGKERELVAAIRTDGSTYYADSVKGRFTISRDNAKNTVYLQMNSLKPEDTAVYYCAAVSKFQFHYIQYADRQYGYWGQGTQVTVSS”: the “polyreactivity (PSR sort gate)” value is “low polyreactivity”.

“QVQHVESGGGLVQAGGSLRLSCAASGSIFGRYVMGRYRQAPGKESEFVAAISRSGGRTYYADSVKGRFTISRDNAKNTVYLQMNSLKPEDTAVYYCNAVGAAGPYDYWGQGTQVTVSS”: the “polyreactivity (PSR sort gate)” value is “high polyreactivity”.

Regarding “QVQHVESGGGLVQAGGSLRLSCAASGSIFITYAMGWYRQAPGKERELVAAIRDSGDRTYYADSVKGRFTISRDNAKNTVYLQMNSLKPEDTAVYYCNARWQEPQKYDYWGQGTQVTVSS”, the “polyreactivity (PSR sort gate)” value is on record as “low polyreactivity”.

As to “QVQHVESGGGLVQAGGSLRLSCAASGSIFVWYAMGWYRQAHGKERELVAAINWSGGRTYYADSVKGRFTISRDNAKNTVYLQMNSLKPEDTAVYYCAAELRRSDTYNYWGQGTQVTVSS”, the “polyreactivity (PSR sort gate)” value is “high polyreactivity”.

As to “QVQHVESGGGLVQAGGSLRLSCAASGSIFYIYAMGWYRQAPGKERELVAAISGSGSTYYADSVKGRFTISRDNAKNTVYLQMNSLKPEDTAVYDCAVELWRFWGAYTYTYDYWGQGTLVTVSS”, the “polyreactivity (PSR sort gate)” value is reported as “high polyreactivity”.

For the sequence “QVQHVESGGGLVQAGGSLRLSCAASGSILGVNAMGWYRQAPGKERELVAAISRTGGTTYYADSVKGRFTISRDNAKNTVYLQMHSLKPEDTAVYYCAGDVVFTSVPTGYLGYEYWGQGTQVTVSS”, the “polyreactivity (PSR sort gate)” value is “high polyreactivity”.

For the sequence “QVQHVESGGGLVQAGGSLRLSCAASGSTFAFYAMGWYRQAPGKERELVAAITWRVGSTYYADSVKGRFTISRDNAKNTVYLQMNSLKPEDTAVYYCAVDIPFYDSDYCGQGTQVTVSS”, the “polyreactivity (PSR sort gate)” value is “low polyreactivity”.

With “QVQHVESGGGLVQAGGSLRLSCAASGSTFDRYAMAWYRQAPGKERELVAAISRSTGRTNYADSVKGRFTISRDNAKNTVYLQMNSLIPEDTAVYYCAAYRYLRYDYWGQGTQVTVSS”, the “polyreactivity (PSR sort gate)” value is given as “high polyreactivity”.

For “QVQHVESGGGLVQAGGSLRLSCAASGSTFKFYTMGWYRQAPGKERELVAGSTRAGSTNYADSVKGRFTISRDNAKNTVYLQMNSLKPEDTAVYYCNAYIWIYGCDYWGQGTQVTVSS”, the “polyreactivity (PSR sort gate)” value is on record as “high polyreactivity”.

For the sequence “QVQHVESGGGLVQAGGSLRLSCAASGSTFLANTMGWYRQAHGKERELVAAITRRGGSTRYADSVKGRFTISRDNAKNTVYLQMNSLKPEDTAVYYCAAPWFRDTRGYSLYDYWGQGTQVTVSS”, the “polyreactivity (PSR sort gate)” value is given as “high polyreactivity”.

Turning to “QVQHVESGGGLVQAGGSLRLSCAASGSTFLYYAMGWSRQAPGKERELVARITTRVGRTYYADSVKGRFTISRDNAKNTVYLQMNSLKPEDTAVYYCAAYPDYSYYYWGQGTQVTVSS”, the “polyreactivity (PSR sort gate)” value is reported as “high polyreactivity”.

On to “QVQHVESGGGLVQAGGSLRLSCAASGSTFRFYDMGWYRQSPGKERELVATISSSGGTTYYADSVKGRFTISRDNAKNTVYLQMNSLKPEDTAVYYCNKYYGGRYRQYAYGYWGQGTQVTVSS”, for which the “polyreactivity (PSR sort gate)” value is recorded as “high polyreactivity”.

Take “QVQHVESGGGLVQAGGSLRLSCAASGSTFRVNAMGWYRPAPGKERELVAGISKSGTSTYYADSVKGRFTISRDNAKNTVYLQMNSLKPEDTAVYYCIKGYYRHPDESDYWGQGTQVTVSS”: the “polyreactivity (PSR sort gate)” value is reported as “high polyreactivity”.

In the case of “QVQHVESGGGLVQAGGSLRLSCAASGSTFYYYAMGWYRQARGKERELVATISRSTARTFYADSVKGRFTISRDNAKITVYLQMNSLKPEDTAVYYCAREYYYRRGFFLRGYWGQGTQVTVSS”, the “polyreactivity (PSR sort gate)” value is recorded as “high polyreactivity”.

On to “QVQHVESGGGLVQAGGSLRLSCAASGSTITANAMGWYRQAPGKERELVPAISDTTGNTYYADSVMGRFTISRDNANNTVYLQMNSLKPEDTAVYYCAADLTSYYGGDYWGQGTQVTVSS”, for which the “polyreactivity (PSR sort gate)” value is listed as “low polyreactivity”.

For the sequence “QVQHVESGGGLVQAGGSLRLSCAASGYIFKGNVMGWYRQAPGKERELVAAISRSGGRTYYADSVKGRFTISRDNAKNTVYLQLNSLKPDDTAVFYCFTKHRTKPTRPVDYWGQGTQVTVSS”, the “polyreactivity (PSR sort gate)” value is listed as “high polyreactivity”.

Regarding “QVQHVESGGGLVQAGGSLRLSCAASGYIFPDYAMGWYRLAPGKEREMVAAITSSGGITYYADSVKGRFTISRDNAKNTVYLQMNCLKPEDSAVYYCAKGYPWRYSIMDYWGQGTQVTVSS”, the “polyreactivity (PSR sort gate)” value is “low polyreactivity”.

For “QVQHVESGGGLVQAGGSLRLSCAASGYIFSRYMGWYRQAPGKERQLVAAITRGGVSTYYADSVKGRFTISRDNAKNTVYLQMNSLKPEDTAVYYCATGRPVYYVASYDYDYWGQGTQVTVSS”, the “polyreactivity (PSR sort gate)” value is “low polyreactivity”.

For the sequence “QVQHVESGGGLVQAGGSLRLSCAASGYTFPLYAMGWYRQAPGKEREFVAAISKRSGTTYYADSVKGRFTISRDNAKNTVYLQMNSLKPEDTAVYYCNAGYSVYNQRFGYWGQGTQVTVSS”, the “polyreactivity (PSR sort gate)” value is recorded as “high polyreactivity”.

In the case of “QVQHVESGGGLVQAGGSLRLSCAASIRIFRYYAMGRSRQGPGKEREVVASSRSASSTYYADSVKGRFTISRDNAKNPVYLQMNSLKAEDTAVYYCNAVSPLSIWSSRDGWYGYWGQGTQVTVSS”, the “polyreactivity (PSR sort gate)” value is given as “high polyreactivity”.

As for “QVQHVESGGGLVQAGGSLRLSCAASMGWYRQAPGKERELVAAINSGGSTNYADSVKGRFTISRDNAKNTVYLQMNSLKPEDTAVYYCAKTFSNLPEYDYWGQGTQVTVSS”, the “polyreactivity (PSR sort gate)” value was “low polyreactivity”.

Take “QVQHVESGGGLVQAGGSLRLSCAPSGRIFRYNAMGWYRQAPGKERELVAVISTRGGSTFYADSVKGRFTISRDNAKNTVYFQMNSLKPEDTAVYSCAAYRRHPFGGGYWGQGTQVTVSS”: the “polyreactivity (PSR sort gate)” value is reported as “high polyreactivity”.

Consider “QVQHVESGGGLVQAGGSLRLSCPASGIIIYQYALGSYRQAPGKERELVAAISSGVNTYYADSVKGRFTISRDNAKNTVYLQMNSLKPEDTAVYYCAARLTFGYLRSKFYYWGQGTQVTVSS”, for which the “polyreactivity (PSR sort gate)” value was “high polyreactivity”.

“QVQHVESGGGLVQAGGSLRLSSAASGLTFYHYTMGWYRQAPGKERELVAAITKNGGSTYYADSVKGRFTISRDNAKNTVYLQMNSLKPEDTAVYYCNVGPRRVDRSRAASSDYDYWGQGTQVTVSS”: the “polyreactivity (PSR sort gate)” value was “high polyreactivity”.

In the case of “QVQHVESGGGLVQAGGSLRLSSAAYGFIFGYYTMGWYRQAPGKERELVAAITSGDSTNYADSVKGRFTISRDNAKNTVYLQMNSLKPEDTAVYYCNARGLFTWMDYWGQGTQVTVSS”, the “polyreactivity (PSR sort gate)” value was “low polyreactivity”.

In the case of “QVQHVESGGGLVQAGGSLSLSCAASARTFRRNVMGLYRQAPGKERELVAAISYGANTNYADSVKGRFTISRDNAKNTVYLQMNSLKPEDTAVYYCAAGEGWRSRTFDYWGQGTQVTVSS”, the “polyreactivity (PSR sort gate)” value was “low polyreactivity”.

As to “QVQHVESGGGLVQAGGSNRLSCAASAFIFRSNAMGWYRQAAGKEREFVPAISSRGGSTTYADSVKGRFTISRDNAKITVYLQMKSLKPEDTAVYYCARDCYYYPQYRKRYYYWGQGTQVSVSS”, the “polyreactivity (PSR sort gate)” value is listed as “high polyreactivity”.

For “QVQHVESGGGLVQAGRSLRLICAASGSIFDGNAMGWYRQAPGKERELVAAINWPGTRTYYADSVKGRFTISRDNAKNTVYLQMNSLKPEETAVYNCNKKWYPYLEHDYWGLGTQVTVSS”, the “polyreactivity (PSR sort gate)” value is listed as “high polyreactivity”.

For “QVQHVESGGGLVQSGGSLRLSCAASGSIFGKYSMGWYRQAPGKERELVAAISDSGSITYYADSVKGRLTISRDNAMYTFYLQMNSLKPEDTAVYYCAAEVNYYQRFKYEYWGQGTQVTVSS”, the “polyreactivity (PSR sort gate)” value is recorded as “high polyreactivity”.

For “QVQHVESGGGVVQGGGSLRLSCAASLSIFYIYAMGWYRQAPGTERELVAAITRSGGSTNYADSVTGPFTFSRDNATNTVYLQMTSLQPEDTAVYYCAAAVGRPYTPTYDYWGQGTKVTVSS”, the “polyreactivity (PSR sort gate)” value is on record as “low polyreactivity”.

Consider “QVQHVESGGVLVQARGSLRLTCAASGSTFIRNAMGWYRQAPGKERELVAAISASGGRSYYADSVKGRFTFSRDNAKTSVYCQLNSLKSEDTAVYYFAARNARYVHTMVFWGQGTQVTVSS”, for which the “polyreactivity (PSR sort gate)” value is reported as “high polyreactivity”.

“QVQHVESGRGLVPAGGSLRLSCAASGSTFNLNAMGWYRQAPGKERELVAAISWRGDSTSYADSVKGRFTISRDNAKNTVYLQMNSLKPEDTAVYFCATAHDSAFYRYWYVPSEYNYWGQGTQVTVSS”: the “polyreactivity (PSR sort gate)” value is given as “low polyreactivity”.

Turning to “QVQHVESGRGLVQAGGSLRLSCAASGSIFRWYTMGWYRQAPGKERELVAAITSGGTTKYADSVKGRFTISRDNAKNTVYLQMNSLKPEDTAVYYCARRHRYRYDWGQGTQVTVSS”, the “polyreactivity (PSR sort gate)” value was “high polyreactivity”.

As for “QVQHVESGRGLVQAGGSLRLSCAASGSIFTSNAMGWYRQAPGIERELVAAISIGGGTYYADSVKGRFTISRDNAKNTVYLQMNSLKPEDTAVYYCAARVGGRRVRFNYWGQGTQVTVSS”, the “polyreactivity (PSR sort gate)” value is given as “high polyreactivity”.
